Reference: patent US6793917 (SHIONOGI, dated 2004)

T1: CCR4 expressed on 293/EBNA-1 cells (human, UniProt P51679 1-360)
T1 construct: whole, on cells; also called CCR4 receptor
T1 sequence (looked up): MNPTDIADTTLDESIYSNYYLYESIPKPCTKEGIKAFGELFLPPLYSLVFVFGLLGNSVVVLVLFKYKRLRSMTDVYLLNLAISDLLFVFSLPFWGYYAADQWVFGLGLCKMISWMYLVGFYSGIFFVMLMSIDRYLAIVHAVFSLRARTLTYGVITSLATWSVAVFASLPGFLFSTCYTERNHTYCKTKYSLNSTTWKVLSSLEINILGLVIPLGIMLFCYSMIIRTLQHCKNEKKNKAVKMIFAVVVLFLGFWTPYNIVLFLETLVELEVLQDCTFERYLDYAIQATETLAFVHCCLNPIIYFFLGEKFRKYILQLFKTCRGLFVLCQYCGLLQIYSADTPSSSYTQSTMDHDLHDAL

T2: Duffy antigen/receptor for chemokine (DARC) on erythrocytes (UniProt Q16570 1-336)
T2 construct: whole, on cells
T2 sequence (looked up): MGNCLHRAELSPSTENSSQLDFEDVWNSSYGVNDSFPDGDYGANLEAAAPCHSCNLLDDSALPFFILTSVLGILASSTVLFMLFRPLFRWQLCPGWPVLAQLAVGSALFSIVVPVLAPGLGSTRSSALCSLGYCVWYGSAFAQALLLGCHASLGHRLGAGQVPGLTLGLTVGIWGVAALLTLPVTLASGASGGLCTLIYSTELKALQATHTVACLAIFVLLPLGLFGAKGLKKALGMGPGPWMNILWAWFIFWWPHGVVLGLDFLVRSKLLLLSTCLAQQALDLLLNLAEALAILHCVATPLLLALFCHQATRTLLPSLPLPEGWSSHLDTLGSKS


What was measured:
[1] = molecular target: T3, receptor for TARC on Jurkat cell and certain other T-cells; assay: displacement of 2 nM 125I-labeled TARC from Jurkat cells by unlabeled TARC, Scatchard analysis
T3 construct: also called TARC receptor; receptors for TARC

[2] = molecular target: T1, CCR4 expressed on 293/EBNA-1 cells; assay: displacement of 1 nM TARC-SEAP from 4x10^5 293/EBNA-1 cells expressing CCR4 by unlabeled TARC
Experimental: The binding experiment was conducted in 200 μl RPMI-1640 containing 20 mM HEPES (pH 7.4), 1% BSA, and 0.02% sodium azide. […] Cells were washed and dissolved in 50 μl 10 mM Tris-HCl (pH 8.0) containing 1% Triton X-100, and treated at 65° C. for 10 minutes to inactivate the phosphatase originated from the cells. After centrifugation, the AP activity in 25 μl of the supernatant was measured. The nonspecific binding was measured using 1 nM SEAP.

[3] = molecular target: T2, Duffy antigen/receptor for chemokine …; assay: displacement of 0.66 nM 125I-labeled TARC from 10^8 erythrocytes by unlabeled TARC, Scatchard analysis
Text: It has been known that erythrocyte expresses a Duffy antigen/receptor for chemokine (DARC) to which various chemokines can be bound.

[4] = molecular target: T3, receptor for TARC on Jurkat cell and …; assay: saturation binding of 125I-labeled TARC to Jurkat cells, Scatchard analysis
Text: To determine the binding constant and the number of receptor, conditions under which the binding reaches equilibrium were examined.

Kd [1] [nM]	IC50 [2] [nM]	Kd [3] [nM]	Kd [4] [nM]	Binder
2.1	~3	17		human TARC (Thymus and Activation-Regulated Chemokine), mature secreted form, expressed in and purified from insect cells (ligand, also called hTARC; unlabeled TARC) ARGTNVGRECCLEYFKGAIPLRKLKTWYQTSEDCSRDAIVFVTVQGRAICSDPNNKRVKNAVKYLQSLERS
			2.1	125I-labeled human TARC (ligand, 125I label introduced with 125I-labeled Bolton-Hunter reagent (site not stated), specific activity 81.6 uCi/ug) ARGTNVGRECCLEYFKGAIPLRKLKTWYQTSEDCSRDAIVFVTVQGRAICSDPNNKRVKNAVKYLQSLERS
